Conditions in all cases: tags: 125I-labelled; chain copies: 2
Series [1] deals with T1, VEGF165 (UniProt P15692-4 P15692-4:27-191). Briefly: competition; VEGF/Flt-1 inhibition more effective than 10K linear; values in figure.
Series [2] concerns the target T1, VEGF165. Kind of series: competition; VEGF/Flt-1 inhibition less effective than 30K linear; values in figure.
Series [3] addresses T1, VEGF165. Kind of series: competition; CMC conjugates inhibit VEGF/Flt-1 binding better than non-enhanced aptamer; CMC alone no effect; values in figure.
Series [4] addresses T1, VEGF165. Kind of series: competition; 3'-PEG more effective than non-enhanced aptamer in inhibiting VEGF/Flt-1 binding; values in figure.
In series [5] the target is T1, VEGF165. Kind of series: competition; dextran conjugates inhibit VEGF/Flt-1 binding better than non-enhanced aptamer; dextran alone no effect; values in figure.
Series [6] addresses T1, VEGF165. Kind of series: competition; inhibits 125I-VEGF165 binding to Flt-1/Fc; much more effective than EYE002; PBS, 1 mM CaCl2, 1 mM MgCl2, 0.01% HSA, pH 7.4, 37 C; IC50 only in figure. As to the method:
Each well is then washed with 300 μL of binding buffer (PBS with 1 mM calcium chloride, 1 mM magnesium chloride, 0.01% HSA, PH 7.4) at room temperature twice. For KDR/Fc, 0.25 picomole (85 ng) of the chimeric receptor in 100 μL of binding buffer is added into the first 11 wells, whereas the twelfth well receive 0.5 picomole (118 ng) of human ICAM-1/Fc chimera protein as the background control well. For Flt-1/Fc, 0.125 picomole (30.8 ng) of the chimeric receptor in 100 μL of binding buffer each is added into the first 11 wells, whereas the background control well (#12) receive 0.5 picomole (118 ng) of human ICAM-1/Fc chimera protein. For neuropilin-1/Fc, 0.2 picomole (48 ng) of the chimeric receptor in 100 μl of binding buffer is added to all 12 wells. The chimeric receptors and human ICAM-1/Fc protein are captured onto the well by binding to the immobilized anti-human IgG₁ Fc fragment-specific antibody in each well at room temperature for 2 to 3 hour. […]
A set of 10 five-fold dilutions of the Pegaptanib (tube #1 to #10) ranging from 1 μM (or 2 μM) to 0.512 picomolar (pM) (or 1.024 pM) are each mixed with about 0.01 μCi of ¹²⁵I-VEGF₁₆₅ in binding buffer (PBS with 1 mM calcium chloride, 1 mM Magnesium Chloride, 0.01% HSA, pH 7.4) in non-stick 1.5 mL microfuge tubes, in a total 100 μL final volume each. […] The radioactivity of each well is determined by scintillation counting.

The target of series [7] is T1, VEGF165. Briefly: competition; VEGF/Flt-1 inhibition less effective than 20K/20K branched; values in figure.

T1 sequence (P15692 other isoform, or with tags, fused parts or gaps): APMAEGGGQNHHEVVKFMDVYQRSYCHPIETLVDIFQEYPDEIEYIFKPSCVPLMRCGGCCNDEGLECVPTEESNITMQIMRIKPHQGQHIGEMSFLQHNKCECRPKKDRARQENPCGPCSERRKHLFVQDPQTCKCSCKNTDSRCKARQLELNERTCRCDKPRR

B1: 30K linear PEG VEGF aptamer conjugate (ssRNA)
RNA: CGGAAUCAGUGAAUGCUUAUACAUCCG
modifications: 2'-F on C and U, 2'-OMe on G and A except unmodified ribo A at positions 4 and 5; PEG 30K linear
As to B1, the binding result with VEGF165 [1] is reported as “binds”.

B2: 10K linear PEG VEGF aptamer conjugate (ssRNA)
RNA: CGGAAUCAGUGAAUGCUUAUACAUCCG
modifications: 2'-F on C and U, 2'-OMe on G and A except unmodified ribo A at positions 4 and 5; PEG 10K linear
On to B2, for which, in the series with VEGF165 [2], the binding result was “binds”.

B3: 5'-CMC VEGF aptamer conjugate (ssRNA)
RNA: CGGAAUCAGUGAAUGCUUAUACAUCCG
modifications: 2'-F on C and U, 2'-OMe on G and A except unmodified ribo A at positions 4 and 5; 5'-carboxymethyl cellulose (about 50 kDa)
For the molecule B3, in the series with VEGF165 [3], the binding result was “binds”.

B4: 3'-PEG VEGF aptamer conjugate (ssRNA)
RNA: CGGAAUCAGUGAAUGCUUAUACAUCCG
modifications: 2'-F on C and U, 2'-OMe on G and A except unmodified ribo A at positions 4 and 5; 3'-PEG
Consider B4, for which the binding result in the series with VEGF165 [4] is on record as “binds”.

B5: 5'-dextran VEGF aptamer conjugate (ssRNA)
RNA: CGGAAUCAGUGAAUGCUUAUACAUCCG
modifications: 2'-F on C and U, 2'-OMe on G and A except unmodified ribo A at positions 4 and 5; 5'-dextran (e.g. 40 kDa)
As for B5, the binding result with VEGF165 [5] is on record as “binds”.

B6: Pegaptanib (EYE001, Macugen, MacI; 20K/20K branched 5'-PEG VEGF aptamer) (ssRNA)
RNA: CGGAAUCAGUGAAUGCUUAUACAUCCG
modifications: 2'-F on C and U, 2'-OMe on G and A except unmodified ribo A at positions 4 and 5; 5'-PEG 40 kDa branched via amino linker; 3'-3' dT cap
For B6, in the series with VEGF165 [6], the binding result is “binds”.

B7: 5K/5K branched PEG VEGF aptamer conjugate (ssRNA)
RNA: CGGAAUCAGUGAAUGCUUAUACAUCCG
modifications: 2'-F on C and U, 2'-OMe on G and A except unmodified ribo A at positions 4 and 5; PEG 5K/5K branched
For B7, the binding result in the series with VEGF165 [7] was “binds”.

These data come from US20050260153, “Facilitation of iontophoresis using charged moieties” (published 2005).
